The target of experiment [1] is T1, IL6R90-G1m/lamL (Homo sapiens (Human), UniProt P0DOY2 1-106).
T1 construct: IgG antibody-like molecule lacking VL
The experiment can be described thus: BLI (Octet HTX), hsIL-6R-BAP1 on streptavidin sensor, molecule as analyte, 30 C. In general terms: Biolayer interferometry detects binding as a change in optical thickness at a sensor tip.

The target of the next experiment is T2, 20A11-G1m/VK2-28-k0MT.
T2 construct: IgG antibody-like molecule
The experiment can be described thus: BLI (Octet), in the same way as in Example 3.

Another experiment addresses T3, 20A11hu-G1m/VK2-28-k0MT (Homo sapiens (Human), UniProt P0DOX5 2-447 = IgG part).
T3 construct: IgG antibody-like molecule
The experiment can be described thus: BLI (Octet), in the same way as in Example 3, 30 C or 25 C.

For experiment [2], the target named is T1, IL6R90-G1m/lamL. The experiment can be described thus: BLI (Octet HTX), molecule captured on Protein A biosensor, hsIL-6R as analyte, 30 C. The procedure:
(§1) The hsIL-6R binding evaluation of each molecule was conducted using Octet HTX (Pall ForteBio Corp.). Specifically, each molecule was bound to Biosensor/Protein A (ProA) (Pall ForteBio Corp., 18-5013), and hsIL-6R was allowed to act thereon, followed by binding evaluation at 30° C.

In another experiment the target is T4, IL6R90-G1m/VK2-28-k0MT.
T4 construct: IgG antibody-like molecule
T4 sequence (light, as listed by the source, chain 2 of 2, other chains not shown): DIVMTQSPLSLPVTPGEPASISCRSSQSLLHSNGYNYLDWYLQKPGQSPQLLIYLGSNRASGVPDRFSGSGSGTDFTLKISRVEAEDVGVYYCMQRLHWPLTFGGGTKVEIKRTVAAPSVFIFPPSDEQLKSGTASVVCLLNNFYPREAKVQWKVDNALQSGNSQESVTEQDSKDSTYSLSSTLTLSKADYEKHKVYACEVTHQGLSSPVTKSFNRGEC
The description is as above. How it is done: as §1

In another experiment the target is T5, human CD3ed-Fc (human).
T5 construct: Biotinylated in culture with BirA; The heterodimer fraction was purified; also called biotin-labeled protein containing human CD3 epsilon and human CD3 delta linked to a human antibody constant region; CD3 epsilon-delta heterodimer fused with the antibody constant region
T5 chain 1: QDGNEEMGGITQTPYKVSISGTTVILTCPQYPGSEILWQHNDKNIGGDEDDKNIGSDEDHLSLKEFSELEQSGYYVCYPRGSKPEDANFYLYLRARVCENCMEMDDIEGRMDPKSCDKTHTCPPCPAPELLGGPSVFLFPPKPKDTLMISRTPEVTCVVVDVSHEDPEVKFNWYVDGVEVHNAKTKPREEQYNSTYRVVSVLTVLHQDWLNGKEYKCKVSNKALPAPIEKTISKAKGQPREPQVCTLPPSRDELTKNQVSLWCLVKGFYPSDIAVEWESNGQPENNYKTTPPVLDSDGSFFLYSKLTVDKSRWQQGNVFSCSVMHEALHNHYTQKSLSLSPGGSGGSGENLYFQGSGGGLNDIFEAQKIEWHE
T5 chain 2: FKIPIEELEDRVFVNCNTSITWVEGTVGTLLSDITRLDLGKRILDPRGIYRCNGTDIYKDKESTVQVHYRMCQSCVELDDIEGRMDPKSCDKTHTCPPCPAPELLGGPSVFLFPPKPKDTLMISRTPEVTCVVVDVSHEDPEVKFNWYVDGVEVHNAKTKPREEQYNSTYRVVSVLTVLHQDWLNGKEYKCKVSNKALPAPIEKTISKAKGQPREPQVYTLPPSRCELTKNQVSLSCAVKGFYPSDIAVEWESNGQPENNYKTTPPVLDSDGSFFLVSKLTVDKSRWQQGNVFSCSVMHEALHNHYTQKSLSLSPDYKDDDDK
The experiment can be described thus: phage display: panning on biotin-labeled human CD3ed-Fc and/or phage ELISA.

Consider five molecules from patent publication US20240150476A1 (Chugai, published 2024).

T2 sequence (heavy, as listed by the source, chain 1 of 2): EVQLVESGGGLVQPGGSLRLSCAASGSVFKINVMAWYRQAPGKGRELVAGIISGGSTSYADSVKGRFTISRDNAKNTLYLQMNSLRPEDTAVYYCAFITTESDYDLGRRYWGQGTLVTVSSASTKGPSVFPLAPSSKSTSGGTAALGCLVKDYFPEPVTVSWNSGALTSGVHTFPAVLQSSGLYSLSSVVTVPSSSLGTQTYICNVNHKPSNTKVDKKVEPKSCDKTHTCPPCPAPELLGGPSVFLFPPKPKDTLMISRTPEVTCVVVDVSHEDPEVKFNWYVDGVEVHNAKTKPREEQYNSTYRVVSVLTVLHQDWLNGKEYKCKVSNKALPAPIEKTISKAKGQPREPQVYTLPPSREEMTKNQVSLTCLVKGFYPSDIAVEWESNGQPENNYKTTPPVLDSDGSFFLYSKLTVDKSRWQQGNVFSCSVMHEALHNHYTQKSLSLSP
T2 sequence (light, as listed by the source, chain 2 of 2): as the sequence (light, as listed by the source, chain 2 of 2, other chains not shown) above
T3 sequence (P0DOX5 other isoform, or with tags, fused parts or gaps, chain 1 of 2): as the sequence (heavy, as listed by the source, chain 1 of 2) above, with Y37V, R45L, L47W counted along it
T3 sequence (light, as listed by the source, chain 2 of 2): as the sequence (light, as listed by the source, chain 2 of 2, other chains not shown) above
Experimental for human CD3ed-Fc: Next, BSA was added to the phage library solution so as to attain a final BSA concentration of 4%. […] The magnetic beads used were NeutrAvidin coated beads (FG beads NeutrAvidin) or Streptavidin coated beads (Dynabeads MyOne Streptavidin T1).
Specifically, 100 pmol of the biotin-labeled antigen was added to the prepared phage library solution, and the phage library solution was contacted with the antigen at room temperature for 60 minutes. The magnetic beads blocked with BSA were added thereto, and the complexes of the antigen and the phages were bound to the magnetic beads at room temperature for 15 minutes. The beads were washed twice with 0.5 mL of TBST (TBS containing 0.1% Tween 20; TBS was manufactured by Takara Bio Inc.) and then further washed once with 0.5 mL of TBS. Then, 0.5 mL of 1 mg/mL trypsin was added thereto, and the beads were suspended at room temperature for 15 minutes and immediately thereafter, separated using a magnetic stand to recover a phage solution. The recovered phage solution was added to 20 mL of an E. coli line ER2738 in an exponential stage of growth (OD600: 0.4-0.5). The E. coli was cultured with mild stirring at 37° C. for 1 hour and thereby infected by the phages. […] Next, the phages were recovered from the culture solution of the inoculated E. coli to prepare a phage library solution. This cycle, called panning, was repeated twice. In the second cycle of panning, the beads were washed three times with TBST and subsequently twice with TBS. Also, 4 nmol of human Fc was added in the case of the panning against the human CD3ed-Fc.

B1: hsIL-6R-BAP1 (receptor)
chain: LAPRRCPAQEVARGVLTSLPGDSVTLTCPGVEPEDNATVHWVLRKPAAGSHPSRWAGMGRRLLLRSVQLHDSGNYSCYRAGRPAGTVHLLVDVPPEEPQLSCFRKSPLSNVVCEWGPRSTPSLTTKAVLLVRKFQNSPAEDFQEPCQYSQESQKFSCQLAVPEGDSSFYIVSMCVASSVGSKFSKTQTFQGCGILQPDPPANITVTAVARNPRWLSVTWQDPHSWNSSFYRLRFELRYRAERSKTFTTWMVKDLQHHCVIHDAWSGLRHVVQLRAQEEFGQGEWSEWSPEAMGTPWTESRSPPAENEVSTPMQALTTNKDDDNILFRDSANATSLPVQGGGGSGLNDIFEAQKIEWHE
modifications: biotin on the C-terminal AviTag sequence (BirA)
notes: also called hsIL-6R-Avitag; biotinylated soluble human IL6R
Take B1: in the experiment with IL6R90-G1m/lamL [1], the binding result was “binds”.

B2: soluble human IL-6R (receptor)
chain: LAPRRCPAQEVARGVLTSLPGDSVTLTCPGVEPEDNATVHWVLRKPAAGSHPSRWAGMGRRLLLRSVQLHDSGNYSCYRAGRPAGTVHLLVDVPPEEPQLSCFRKSPLSNVVCEWGPRSTPSLTTKAVLLVRKFQNSPAEDFQEPCQYSQESQKFSCQLAVPEGDSSFYIVSMCVASSVGSKFSKTQTFQGCGILQPDPPANITVTAVARNPRWLSVTWQDPHSWNSSFYRLRFELRYRAERSKTFTTWMVKDLQHHCVIHDAWSGLRHVVQLRAQEEFGQGEWSEWSPEAMGTPWTESRSPPAENEVSTPMQALTTNKDDDNILFRDSANATSLPVQ
notes: Expressed in CHO cells and purified from the supernatant; also called hsIL-6R; recombinant human IL6R
Turning to B2, the binding result with 20A11-G1m/VK2-28-k0MT is listed as “binds”; with 20A11hu-G1m/VK2-28-k0MT, “no binding”; with IL6R90-G1m/lamL [2], “binds”; with IL6R90-G1m/VK2-28-k0MT it was “no binding”.

B3: bC3edL1R1N160H01 (VHH)
VHH: QVQLVESGGGLVQPGGSLRLSCAASGFTFNHCWMYWVRQAPGKGLEWVSVINTDGGSAYYADSVKGRFTISRDNAKNTLYLQMNSLKSEDTAVYYCARDWAPLVDYYYGMDYWGKGTLVTVSG
Take B3: in the experiment with human CD3ed-Fc, the binding result is listed as “binds”.

B4: bC3edL1R1N161H01 (VHH)
VHH: QVQLVESGGGLVQPGGSLRLSCAASGFPFDNYVMSWVRQAPGKGLEWISAISWNGGSTYYAESMKGRFTISRDNAKSTLYLQMNSLKSEDTAVYYCAKEPRVYYSGSPDYWGQGTQVTVSG
As for B4, in the experiment with human CD3ed-Fc, the binding result is given as “binds”.

B5: bC3edL1R1N164H01 (VHH)
VHH: QVQLVESGGGLVQPGGSLRLSCAASGFTFDVYGMSWVRHSPGKGLEWVSTINWNGGSTYYAESMKGRFTISRDNAKNTVYLQMNSLKPEDTAVYYCAKFAPWDGDMEWGQGTQVTVSG
On to B5, for which the binding result with human CD3ed-Fc is listed as “binds”.
